According to PMC4833948:

How the values were obtained:
[1] = target: human NHE1 C-terminal distal tail, M + I680-Q815 (hNHE1cdt WT) (human) (UniProt P19634)
hNHE1cdt D3-AXA (human) = hNHE1cdt D3-AXA (human) (UniProt P19634)
hNHE1cdt F1-A (human) = hNHE1cdt F1-A (human) (UniProt P19634)
hNHE1cdt F2-AA (human) = hNHE1cdt F2-AA (human) (UniProt P19634)
[2] = target: hNHE1cdt D1D2-(AXA)2 (human) (UniProt P19634)

Substance: active ERK2 (aERK2) (from UniProt P28482 1-360) (enzyme)
- k app of phosphorylation of S693 of hNHE1cdt by aERK2 (time-resolved NMR, 25 °C) [1]: 0.349 h⁻¹
- k app of phosphorylation of S723/S726 of hNHE1cdt by aERK2 (decrease of the S723 peak; time-resolved NMR, 25 °C) [1]: 0.0821 h⁻¹
- k app of phosphorylation of S771 of hNHE1cdt by aERK2 (time-resolved NMR, 25 °C) [1]: 0.0088 h⁻¹
- k app of phosphorylation of S785 of hNHE1cdt by aERK2 (time-resolved NMR, 25 °C) [1]: 0.0305 h⁻¹
- k app of phosphorylation of T779 of hNHE1cdt by aERK2 (time-resolved NMR, 25 °C) [1]: 0.165 h⁻¹
- k app of phosphorylation of S693 of hNHE1cdt by aERK2 (time-resolved NMR, 25 °C) (hNHE1cdt D3-AXA (human)): 0.349 h⁻¹
- k app of phosphorylation of S723/S726 of hNHE1cdt by aERK2 (decrease of the S723 peak; time-resolved NMR, 25 °C) (hNHE1cdt D3-AXA (human)): 0.0592 h⁻¹
- k app of phosphorylation of S771 of hNHE1cdt by aERK2 (time-resolved NMR, 25 °C) (hNHE1cdt D3-AXA (human)): 0.007 h⁻¹
- k app of phosphorylation of S785 of hNHE1cdt by aERK2 (time-resolved NMR, 25 °C) (hNHE1cdt D3-AXA (human)): 0.0325 h⁻¹
- k app of phosphorylation of T779 of hNHE1cdt by aERK2 (time-resolved NMR, 25 °C) (hNHE1cdt D3-AXA (human)): 0.141 h⁻¹
- k app of phosphorylation of S693 of hNHE1cdt by aERK2 (time-resolved NMR, 25 °C) (hNHE1cdt F1-A (human)): 0.3 h⁻¹
- k app of phosphorylation of S723/S726 of hNHE1cdt by aERK2 (decrease of the S723 peak; time-resolved NMR, 25 °C) (hNHE1cdt F1-A (human)): 0.0741 h⁻¹
- k app of phosphorylation of S771 of hNHE1cdt by aERK2 (time-resolved NMR, 25 °C) (hNHE1cdt F1-A (human)): 0.0047 h⁻¹
- k app of phosphorylation of S785 of hNHE1cdt by aERK2 (time-resolved NMR, 25 °C) (hNHE1cdt F1-A (human)): 0.0088 h⁻¹
- k app of phosphorylation of T779 of hNHE1cdt by aERK2 (time-resolved NMR, 25 °C) (hNHE1cdt F1-A (human)): 0.147 h⁻¹
- k app of phosphorylation of S693 of hNHE1cdt by aERK2 (time-resolved NMR, 25 °C) (hNHE1cdt F2-AA (human)): 0.444 h⁻¹
- k app of phosphorylation of S723/S726 of hNHE1cdt by aERK2 (decrease of the S723 peak; time-resolved NMR, 25 °C) (hNHE1cdt F2-AA (human)): 0.127 h⁻¹
- k app of phosphorylation of S771 of hNHE1cdt by aERK2 (time-resolved NMR, 25 °C) (hNHE1cdt F2-AA (human)): 0.0088 h⁻¹
- k app of phosphorylation of S785 of hNHE1cdt by aERK2 (time-resolved NMR, 25 °C) (hNHE1cdt F2-AA (human)): 0.012 h⁻¹
- k app of phosphorylation of T779 of hNHE1cdt by aERK2 (time-resolved NMR, 25 °C) (hNHE1cdt F2-AA (human)): 0.144 h⁻¹
- k app of phosphorylation of S693 of hNHE1cdt by aERK2 (time-resolved NMR, 25 °C) [2]: 0.319 h⁻¹
- k app of phosphorylation of S723/S726 of hNHE1cdt by aERK2 (decrease of the S723 peak; time-resolved NMR, 25 °C) [2]: 0.061 h⁻¹
- k app of phosphorylation of S771 of hNHE1cdt by aERK2 (time-resolved NMR, 25 °C) [2]: 0.0066 h⁻¹
- k app of phosphorylation of S785 of hNHE1cdt by aERK2 (time-resolved NMR, 25 °C) [2]: 0.0302 h⁻¹
- k app of phosphorylation of T779 of hNHE1cdt by aERK2 (time-resolved NMR, 25 °C) [2]: 0.157 h⁻¹
